How the values were obtained:
[1] = target: T1, recombinant mature human GDF-15 protein (as expressed in Baculovirus-transfected HighFive insect cells) (human, UniProt Q99988 197-308); assay: SPR (Biorad ProteOn XPR36, GLC chip), GDF-15 from insect cells immobilised, antibody as analyte, 25° C., 1:1 Langmuir model
T1 construct: Immobilised by amine coupling on the SPR chip; also called recombinant human GDF-15; GDF-15 derived from insect cell expression
T1 sequence: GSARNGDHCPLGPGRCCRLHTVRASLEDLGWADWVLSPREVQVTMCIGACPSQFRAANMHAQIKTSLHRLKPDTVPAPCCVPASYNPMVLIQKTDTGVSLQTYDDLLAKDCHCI
From the text: (§1) For preparing the biosensors recombinant mature human GDF-15 protein was immobilized on flow cells 1 and 2. On one flow cell recombinant GDF-15 derived from Baculvirus-transfected insect cells (HighFive insect cells) and on the other recombinant protein derived from expression in E. coli was used. The GLC sensor chip was activated using Sulfo-NHS (N-Hydroxysulfosuccinimide) and EDC (1-Ethyl-3-[3-dimethylaminopropyl]carbodiimide hydrochloride) (Biorad ProteOn Amine Coupling Kit) according to the manufacturer's recommendation, the sensor surface was subsequently loaded with the proteins up to a density of about 600 RU (1 Ru=1 pg mm⁻²). The non-reacted coupling groups were then quenched by perfusion with 1M ethanolamine pH 8.5 and the biosensor was equilibrated by perfusing the chip with running buffer ([…], 150 mM NaCl, 3.4 mM EDTA, 0.005% Tween-20, pH 7.4, referred to as HBS150). […] The resulting sensogram was analyzed using the software ProteOn Manager version 3.0. […] For the association rate constant a value of 5.4±0.06×10⁵ M⁻¹s⁻¹ (kₒₙ) and for the dissociation rate constant a value of 4.3±0.03×10⁻⁴ s⁻¹ (koff) could be determined (values are for the interaction of anti-human GDF-15 mAb-B1-23 with GDF-15 derived from insect cell expression).

[2] = target: T1, recombinant mature human GDF-15 protein …; assay: SPR (Biorad ProteOn XPR36), calculated as koff/kon
From the text: as §1

[3] = target: T2, recombinant mature human GDF-15 protein derived from expression in E. coli (human, UniProt Q99988 195-308); assay: SPR (Biorad ProteOn XPR36), GDF-15 from E. coli immobilised, antibody as analyte
T2 construct: mature; also called GDF-15 derived from E. coli expression
T2 sequence (looked up): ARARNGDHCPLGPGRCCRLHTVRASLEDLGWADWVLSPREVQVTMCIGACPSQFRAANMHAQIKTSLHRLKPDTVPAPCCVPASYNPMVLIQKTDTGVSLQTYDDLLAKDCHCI
From the text: as §1, with “The” for “For preparing the biosensors recombinant mature human GDF-15 protein was immobilized on flow cells 1 and 2. On one flow cell recombinant GDF-15 derived from Baculvirus-transfected insect cells (HighFive insect cells) and on the other recombinant protein derived from expression in E. coli was used. The”, “HBS150). As controls two flow cells were used, one empty with no protein coupled and one coupled with an non-physiological protein partner (human Interleukin-5), which was immobilized using the same coupling chemistry and the same coupling density. For interaction measurements anti-human GDF-15 mAb-B1-23 was dissolved in HBS150 and used in six different concentrations as analyte (concentration: 0.4, 0.8, 3, 12, 49 und 98 nM).” for “HBS150).”

koff [1]: 0.00043 s⁻¹
kon [1]: 540000 M⁻¹ s⁻¹
Kd [2]: ~0.79 nM
fold difference of affinity against GDF-15 derived from insect cells [3]: < 2 fold
B1: monoclonal anti-human GDF-15 mAb-B1-23 (antibody, IgG2a, V domains shown, not shown: a dimerising Fc or GST)
VH: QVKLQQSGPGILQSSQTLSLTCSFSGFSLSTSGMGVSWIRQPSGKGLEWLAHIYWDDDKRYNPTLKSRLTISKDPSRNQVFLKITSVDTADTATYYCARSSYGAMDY
VL: DIVLTQSPKFMSTSVGDRVSVTCKASQNVGTNVAWFLQKPGQSPKALIYSASYRYSGVPDRFTGSGSGTDFTLTISNVQSEDLAEYFCQQYNNFPYT
notes: Mouse hybridoma antibody (DSM ACC3142), IgG2a, kappa chain; FR4 and the constant regions are missing; also called antibody B1-23; monoclonal mouse antibody GDF-15

Reference: patent US20180292412A1 (JULIUS MAXIMILIANS UNIVERSIT T W RZBURG, published 2018)
